The target of series [1] is T1, beta-galactosidase/ILF fusion (Homo sapiens, UniProt Q01167 SEQ:138-372). The series is described as follows: competition; up to 50-fold excess. Particulars: tags: N-terminal beta-galactosidase (lambda gt11).
The target in series [2] is T2, GST/ILF fusion (Example 3) (Homo sapiens, UniProt Q01167 SEQ:1-540). Kind of series: competition; no significant competition (also SEQ 27). To be noted: tags: N-terminal GST (pGEX-3X).
Series [3] concerns the target T1, beta-galactosidase/ILF fusion. Kind of series: competition; up to 50-fold excess. To be noted: tags: N-terminal beta-galactosidase (lambda gt11). On the procedure:
Figure 2: FIG. 2. Gel retardation analysis with β-galactosidase/ILF fusion protein. An HIV-LTR fragment extending from −310 to −255 was used in gel retardations with either β-galactosidase or β-galactosidase/ILF purified with anti-β-galactosidase sepharose chromatography. Lane 1, probe alone; lane 2, probe with 3 μg of β-galactosidase extract; lane 3, probe with 3 μg of β-galactosidase/ILF extract. Competition analysis with either a 10-fold (lanes 4, 6, 8, 10) or 50-fold (lanes 5, 7, 9, 11) molar excess of unlabeled oligonucleotides corresponding to ILF (lanes 4 and 5), NFAT (lanes 6 and 7), AP1 (lanes 8 and 9) and CREB (lanes 10 and 11) binding motifs are shown. Figure 3B: FIG. 3. Amino acid sequence of the ILF coding region. (A) A 543 amino acid open reading frame encoded by a portion of the ILF cDNA. The shaded region indicates the region of homology of ILF with the fork head and HNF-3A DNA binding domains. The circled region (GAGSSG) SEQ ID NO:12 contains homology with a nucleotide binding sequence, the boxed region (RKRRPR) SEQ ID NO:13 contains a potential nuclear localization signal, the underlined sequence (RTPLGPLSS) SEQ ID NO:14 is homologous to a region required for ubiquitin-mediated degradation, and the dotted line (NGT) indicates a potential N-glycosylation site. (B) The 3.0 kb ILF cDNA and the position of the 1629 bp open reading frame. […]
This is another data set of the same source.

Series [4] addresses T2, GST/ILF fusion (Example 3). Kind of series: competition; 1-, 5-, 20-fold excess against IL-2 NFAT probe. Particulars: tags: N-terminal GST (pGEX-3X).
In series [5] the target is T3, GST/ILF delta1 (amino-terminal deletion) (Homo sapiens, UniProt Q01167 SEQ:97-540). The series is described as follows: EMSA; 4 ug protein. To be noted: tags: N-terminal GST (pGEX-3X); label: 32P (when probe). An excerpt: (§1) The constructs tested included a deletion of the amino terminus of ILF, a deletion of both the amino and carboxyl termini of ILF, or a deletion of the fork head domain in addition to the amino and carboxyl termini of ILF. Oligonucleotides corresponding to the distal ILF site in the HIV-LTR, the NFAT site in the IL-2 promoter, and an HIV-LTR fragment containing the distal ILF site were used in gel retardation analysis.
(§2) Figure 5C: FIG. 5. Gel retardation analysis of glutathione S-transferase/ILF fusions. Gel retardation analysis was performed with either ILF oligonucleotides (A), a fragment extending from −310 and −255 in the HIV-LTR (B), or NFAT oligonucleotides (C) and 4 μg of each of the glutathione S-transferase/ILF fusions. Lane 0, probe alone; lane 1, glutathione S-transferase (GST) protein alone; lane 2, a deletion of both the amino and carboxyl-termini in the GST/ILF fusion (ΔILF3); lane 3, a deletion of the ILF fork head DNA binding domain in addition to the amino and carboxyl termini in the GST/ILF fusion (ΔILF2); lane 4, an amino-terminal deletion of ILF in the GST/ILF fusion (ΔILF1).

In series [6] the target is T4, GST/ILF amino and carboxyl deletion, fork head retained (Homo sapiens, UniProt Q01167 SEQ:97-367). The series is described as follows: EMSA; 4 ug protein. To be noted: tags: N-terminal GST (pGEX-3X); label: 32P (when probe).
Excerpt: as §1, §2
A general note: Mobility shift assays separate free from complexed probe on a gel.

Series [7] addresses T5, GST/ILF amino, carboxyl and fork head deletion (Homo sapiens, UniProt Q01167 SEQ:97-186). The series is described as follows: EMSA; fork head deleted. To be noted: tags: N-terminal GST (pGEX-3X); label: 32P (when probe).
Excerpt: as §1, §2

Series [8] has as its target T2, GST/ILF fusion (Example 3). The series is described as follows: EMSA; self-competition observed. Particulars: tags: N-terminal GST (pGEX-3X); label: 32P (when probe). On the procedure:
Gel retardation of ILF with the IL-2 NFAT motif. (A) Oligonucleotides corresponding to the NFAT motif in the IL-2 promoter extending from −285 to −254 were end labeled with γP^32ATP and used in gel retardation analysis alone (lane 0), with glutathione-S-transferase (lane 1), or with a glutathione-S-transferase/ILF fusion protein (lanes 2–16). The specificity of binding was tested by competition with unlabeled oligonucleotides corresponding to the NFAT motif in the IL-2 promoter (lanes 2–4), sequences spanning −283 to −256 and −223 to −195 in the HIV-LTR which comprised distal (lanes 5–7) and proximal (lanes 8–10) NFAT motifs respectively, the hepatocyte nuclear factor HNF-3A binding site extending from −107 to −92 in the transthyretin promoter (lanes 11–13), and an AP-1 binding sequence extending from −103 to −83 in the early region 3 promoter (lanes 14–16). The unlabeled oligonucleotides were present in either an equimolar (lanes 2, 5, 8, 11, and 14), 5-fold (lanes 3, 6, 9, 12, and 15) or 20-fold (lanes 4, 7, 10, 13 and 16) molar excess of the labeled oligonucleotides. (B) Sequences of NFAT motifs in the IL-2 promoter and the distal and proximal regions of the HIV-LTR are shown.
Two complexes I and II were noted; the major complex (I) was due to full-length GST/ILF while the lower complex (II) was due to GST/ILF degradation products. […]

Series [9] concerns the target T6, glutathione S-transferase (UniProt P08515 P08515:1-218). Kind of series: EMSA; control. Particulars: tags: pGEX-3X (Pharmacia), chain copies: 2, label: 32P (when probe).
Excerpt: as §1, §2

The target of series [10] is T1, beta-galactosidase/ILF fusion. The series is described as follows: competition; complete competition. Particulars: tags: N-terminal beta-galactosidase (lambda gt11).
The target in series [11] is T3, GST/ILF delta1 (amino-terminal deletion). The series is described as follows: EMSA; stated similar binding with proximal site. To be noted: tags: N-terminal GST (pGEX-3X).
Series [12] deals with T4, GST/ILF amino and carboxyl deletion, …. The series is described as follows: EMSA; stated similar binding with proximal site. To be noted: tags: N-terminal GST (pGEX-3X).
The target of series [13] is T5, GST/ILF amino, carboxyl and fork head …. The series is described as follows: EMSA; stated similar with proximal site. Particulars: tags: N-terminal GST (pGEX-3X).
For series [14], the target named is T6, glutathione S-transferase. Kind of series: EMSA; control. Particulars: tags: pGEX-3X (Pharmacia), chain copies: 2.
Series [15] has as its target T4, GST/ILF amino and carboxyl deletion, …. Kind of series: EMSA; construct naming (delta2/delta3) differs between legend and methods. Particulars: tags: N-terminal GST (pGEX-3X).
The target in series [16] is T1, beta-galactosidase/ILF fusion. The series is described as follows: competition; competes with HIV-LTR probe at 10- or 50-fold excess. Particulars: tags: N-terminal beta-galactosidase (lambda gt11).
Series [17] addresses T3, GST/ILF delta1 (amino-terminal deletion). The series is described as follows: EMSA; 4 ug protein. Particulars: tags: N-terminal GST (pGEX-3X).
Series [18] concerns the target T5, GST/ILF amino, carboxyl and fork head …. The series is described as follows: EMSA; fork head deleted; construct naming differs between legend and methods. Particulars: tags: N-terminal GST (pGEX-3X).

T1 sequence (Q01167 258-492): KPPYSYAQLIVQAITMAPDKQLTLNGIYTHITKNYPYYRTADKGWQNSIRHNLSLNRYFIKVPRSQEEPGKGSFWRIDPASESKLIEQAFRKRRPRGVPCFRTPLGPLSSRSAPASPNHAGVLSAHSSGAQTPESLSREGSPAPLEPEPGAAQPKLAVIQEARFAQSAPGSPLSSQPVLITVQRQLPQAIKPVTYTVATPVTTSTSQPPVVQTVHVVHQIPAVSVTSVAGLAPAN
T2 sequence (Q01167 121-660): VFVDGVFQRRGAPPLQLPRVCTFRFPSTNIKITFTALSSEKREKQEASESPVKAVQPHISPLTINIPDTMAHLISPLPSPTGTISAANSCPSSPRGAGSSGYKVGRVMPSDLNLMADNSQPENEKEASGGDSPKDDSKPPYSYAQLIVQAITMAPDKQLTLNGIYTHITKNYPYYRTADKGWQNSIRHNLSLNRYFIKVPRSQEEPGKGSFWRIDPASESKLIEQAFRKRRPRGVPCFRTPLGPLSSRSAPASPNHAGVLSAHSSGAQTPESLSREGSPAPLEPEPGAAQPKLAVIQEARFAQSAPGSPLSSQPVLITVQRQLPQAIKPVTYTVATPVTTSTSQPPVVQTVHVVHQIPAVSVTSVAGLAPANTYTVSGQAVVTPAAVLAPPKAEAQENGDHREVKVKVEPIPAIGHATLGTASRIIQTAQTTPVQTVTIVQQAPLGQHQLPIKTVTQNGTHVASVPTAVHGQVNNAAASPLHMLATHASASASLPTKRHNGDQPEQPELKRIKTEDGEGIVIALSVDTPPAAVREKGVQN
T3 sequence (Q01167 217-660, stated change not applied): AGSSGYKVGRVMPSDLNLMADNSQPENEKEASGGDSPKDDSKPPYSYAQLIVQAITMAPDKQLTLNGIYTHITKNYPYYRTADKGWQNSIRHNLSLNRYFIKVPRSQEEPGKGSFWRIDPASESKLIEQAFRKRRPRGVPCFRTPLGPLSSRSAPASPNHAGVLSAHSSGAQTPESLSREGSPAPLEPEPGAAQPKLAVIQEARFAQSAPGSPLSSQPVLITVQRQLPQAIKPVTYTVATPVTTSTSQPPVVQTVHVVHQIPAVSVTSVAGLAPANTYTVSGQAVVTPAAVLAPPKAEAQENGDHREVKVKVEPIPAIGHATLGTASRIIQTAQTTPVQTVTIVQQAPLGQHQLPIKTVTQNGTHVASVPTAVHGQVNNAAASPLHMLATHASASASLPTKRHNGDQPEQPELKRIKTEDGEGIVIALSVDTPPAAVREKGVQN
T4 sequence (Q01167 217-487, stated change not applied): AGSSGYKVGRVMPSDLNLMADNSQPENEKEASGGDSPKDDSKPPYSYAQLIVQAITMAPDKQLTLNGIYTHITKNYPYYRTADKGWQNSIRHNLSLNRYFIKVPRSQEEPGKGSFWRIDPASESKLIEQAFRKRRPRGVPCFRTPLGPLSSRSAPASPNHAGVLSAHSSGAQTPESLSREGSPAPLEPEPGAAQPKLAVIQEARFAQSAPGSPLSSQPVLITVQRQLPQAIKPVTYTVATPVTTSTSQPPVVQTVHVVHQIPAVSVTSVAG
T5 sequence (Q01167 217-306, stated change not applied): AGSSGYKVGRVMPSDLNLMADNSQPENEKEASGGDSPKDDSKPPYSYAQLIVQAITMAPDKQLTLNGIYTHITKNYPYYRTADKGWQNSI
T6 sequence (P08515 whole entry, one chain of several): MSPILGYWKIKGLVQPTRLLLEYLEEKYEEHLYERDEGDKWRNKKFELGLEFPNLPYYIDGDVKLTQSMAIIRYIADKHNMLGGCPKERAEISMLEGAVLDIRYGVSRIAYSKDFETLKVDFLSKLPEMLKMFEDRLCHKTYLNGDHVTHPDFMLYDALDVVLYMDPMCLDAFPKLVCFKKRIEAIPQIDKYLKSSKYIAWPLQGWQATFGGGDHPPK

B1: AP1 site, adenovirus E3 promoter (-103 to -83) (dsDNA)
DNA 1: GAAGTTCAGATGACTAACTCA
DNA 2: TGAGTTAGTCATCTGAACTTC
On to B1, for which the binding result in [1] and in series [2] was “no binding” throughout.

B2: CREB/ATF site, somatostatin promoter (-60 to -33) (dsDNA)
DNA 1: GGTTCCTCCTTGGCTGACGTCAGAGAGAGA
DNA 2: TCTCTCTCTGACGTCAGCCAAGGAGGAACC
As for B2, the binding result in series [3] was “no binding”.

B3: HIV-1 proximal NFAT site (Example 3) (dsDNA)
DNA 1: GAGGACGCGGAGAAAGAAGTGTTAAGTGTG
DNA 2: CACACTTAACACTTCTTTCTCCGCGTCCTC
With B3, the binding result in series [4] is given as “binds”.

B4: IL-2 promoter NFAT motif (-285 to -254) (dsDNA)
DNA 1: AATTGGAGGAAAAACTGTTTCATACAGAAGGCGT
DNA 2: ACGCCTTCTGTATGAAACAGTTTTTCCTCCAATT
For the molecule B4, the binding result is “binds” in [5]; “binds” in series [6]; “no binding” in [7]; “binds” in series [8]; “no binding” in series [9].

B5: HIV-1 LTR proximal ILF motif (-223 to -195) (dsDNA)
DNA 1: GAGGACGCGGAGAAAGAAGTGTTAGTGTG
DNA 2: CACACTAACACTTCTTTCTCCGCGTCCTC
B5: the binding result is listed as “binds” in series [10], “binds” in [11], “binds” in [12] and “no binding” in [13].

B6: HIV-1 LTR distal ILF motif (-283 to -256) (dsDNA)
DNA 1: GAAGAGGCCAATGAAGGAGAGAACAACA
DNA 2: TGTTGTTCTCTCCTTCATTGGCCTCTTC
Consider B6, for which the binding result is given as “no binding” in series [14]; “binds” in [15]; “binds” in series [16]; “binds” in series [17]; “no binding” in series [18].

B7: HIV-1 distal NFAT site (Example 3) (dsDNA)
DNA 1: GAAGAGGCCAATGAAGGAGAGAACAACA
DNA 2: TGTTGTTCTCTCCTTCATTGGCCTCTTC
Take B7: the binding result in series [4] is reported as “binds”.

The values above are taken from patent US5534631, “Cellular factor ILF” (Board of Regents, The University of Texas System).
